This note sets out measurements from patent US20090202499A1, “Human Telomerase Reverse Transcriptase Peptides” (priority 2006, published 2009).

Conditions in all cases: remark: other sources report otherwise
The target of experiment [1] is purified HLA-B*3501 (human). As to the kind of experiment: competition radioimmunoassay on purified HLA, radiolabeled standard peptide.
Experiment [2] addresses purified HLA-B*5301 (human). Described as above.
For experiment [3], the target named is purified HLA-B*0801 (human). The experiment is described as above.
The target of experiment [4] is purified HLA-B*0702 (human). As to the kind of experiment: competition solid-phase radioimmunoassay on purified HLA-B7, radiolabeled standard peptide.
Experiment [5] addresses purified HLA-B*0702 (human). As to the kind of experiment: competition radioimmunoassay on purified HLA, radiolabeled standard peptide.
The target in experiment [6] is HLA-B*0702 on T2-B7 cells (human). As to the kind of experiment: MHC stabilization assay on T2-B7 cells (flow cytometry), relative to a reference peptide. (In general: In flow cytometry, cells or beads pass a laser one at a time.)

B1: hTRT peptide p342 (…) (peptide)
peptide: RPSFLLSSL
Consider B1, for which the half-maximal inhibitory concentration (IC50) was 1020 nM in experiment [1], 2200 nM in experiment [2] and 37 nM in experiment [3].

B2: hTRT peptide p444 (…) (peptide)
peptide: DPRRLVQLL
Regarding B2, the concentration for half-maximal inhibition (IC50) stood at 239 nM in experiment [4], 239 nM in experiment [5] and 217 nM in experiment [3].

B3: hTRT peptide p277 (…) (peptide)
peptide: RPAEEATSL
On to B3, for which, in experiment [6], the RA (relative avidity) was 4.7.

As a reminder, the IC50 is the midpoint of a concentration-inhibition curve. High values mean weaker potency in that assay, low ones greater potency in that assay.
